B2: TcdA^1–1874-EGFP (domain or fragment)
chain: MSLISKEELIKLAYSIRPRENEYKTILTNLDEYNKLTTNNNENKYLQLKKLNESIDVFMNKYKTSSRNRALSNLKKDILKEVILIKNSNTSPVEKNLHFVWIGGEVSDIALEYIKQWADINAEYNIKLWYDSEAFLVNTLKKAIVESSTTEALQLLEEEIQNPQFDNMKFYKKRMEFIYDRQKRFINYYKSQINKPTVPTIDDIIKSHLVSEYNRDETVLESYRTNSLRKINSNHGIDIRANSLFTEQELLNIYSQELLNRGNLAAASDIVRLLALKNFGGVYLDVDMLPGIHSDLFKTISRPSSIGLDRWEMIKLEAIMKYKKYINNYTSENFDKLDQQLKDNFKLIIESKSEKSEIFSKLENLNVSDLEIKIAFALGSVINQALISKQGSYLTNLVIEQVKNRYQFLNQHLNPAIESDNNFTDTTKIFHDSLFNSATAENSMFLTKIAPYLQVGFMPEARSTISLSGPGAYASAYYDFINLQENTIEKTLKASDLIEFKFPENNLSQLTEQEINSLWSFDQASAKYQFEKYVRDYTGGSLSEDNGVDFNKNTALDKNYLLNNKIPSNNVEEAGSKNYVHYIIQLQGDDISYEATCNLFSKNPKNSIIIQRNMNESAKSYFLSDDGESILELNKYRIPERLKNKEKVKVTFIGHGKDEFNTSEFARLSVDSLSNEISSFLDTIKLDISPKNVEVNLLGCNMFSYDFNVEETYPGKLLLSIMDKITSTLPDVNKNSITIGANQYEVRINSEGRKELLAHSGKWINKEEAIMSDLSSKEYIFFDSIDNKLKAKSKNIPGLASISEDIKTLLLDASVSPDTKFILNNLKLNIESSIGDYIYYEKLEPVKNIIHNSIDDLIDEFNLLENVSDELYELKKLNNLDEKYLISFEDISKNNSTYSVRFINKSNGESVYVETEKEIFSKYSEHITKEISTIKNSIITDVNGNLLDNIQLDHTSQVNTLNAAFFIQSLIDYSSNKDVLNDLSTSVKVQLYAQLFSTGLNTIYDSIQLVNLISNAVNDTINVLPTITEGIPIVSTILDGINLGAAIKELLDEHDPLLKKELEAKVGVLAINMSLSIAATVASIVGIGAEVTIFLLPIAGISAGIPSLVNNELILHDKATSVVNYFNHLSESKKYGPLKTEDDKILVPIDDLVISEIDFNNNSIKLGTCNILAMEGGSGHTVTGNIDHFFSSPSISSHIPSLSIYSAIGIETENLDFSKKIMMLPNAPSRVFWWETGAVPGLRSLENDGTRLLDSIRDLYPGKFYWRFYAFFDYAITTLKPVYEDTNIKIKLDKDTRNFIMPTITTNEIRNKLSYSFDGAGGTYSLLLSSYPISTNINLSKDDLWIFNIDNEVREISIENGTIKKGKLIKDVLSKIDINKNKLIIGNQTIDFSGDIDNKDRYIFLTCELDDKISLIIEINLVAKSYSLLLSGDKNYLISNLSNTIEKINTLGLDSKNIAYNYTDESNNKYFGAISKTSQKSIIHYKKDSKNILEFYNDSTLEFNSKDFIAEDINVFMKDDINTITGKYYVDNNTDKSIDFSISLVSKNQVKVNGLYLNESVYSSYLDFVKNSDGHHNTSNFMNLFLDNISFWKLFGFENINFVIDKYFTLVGKTNLGYVEFICDNNKNIDIYFGEWKTSSSKSTIFSGNGRNVVVEPIYNPDTGEDISTSLDFSYEPLYGIDRYINKVLIAPDLYTSLININTNYYSNEYYPEIIVLNPNTFHKKVNINLDSSSFEYKWSTEGSDFILVRYLEESNKKILQKIRIKGILSNTQSFNKMSIDFKDIKKLSLGYIMSNFKSFNSENELDRDHLGFKIIDNKTYYYDEDSKLVKGLININNSLFYFDPIEFNLVTGWQTINGKKYYFDINTGAALTS

Key:
Details in all cases: both partners purified
[1] = target: GST-fused TcdA CROPs (combined repetitive oligopeptides of Clostridium difficile toxin A) (Clostridium difficile (strain VPI 10463), UniProt P16154 1875-2710); assay: pull-down
[2] = target: recombinant Rac1 (UniProt P63000 1-192); assay: MST
[3] = target: B2; assay: MST

B1: TcdA^1102–1847 (intermediate domain of toxin A) (domain or fragment)
chain: SAGIPSLVNNELILHDKATSVVNYFNHLSESKKYGPLKTEDDKILVPIDDLVISEIDFNNNSIKLGTCNILAMEGGSGHTVTGNIDHFFSSPSISSHIPSLSIYSAIGIETENLDFSKKIMMLPNAPSRVFWWETGAVPGLRSLENDGTRLLDSIRDLYPGKFYWRFYAFFDYAITTLKPVYEDTNIKIKLDKDTRNFIMPTITTNEIRNKLSYSFDGAGGTYSLLLSSYPISTNINLSKDDLWIFNIDNEVREISIENGTIKKGKLIKDVLSKIDINKNKLIIGNQTIDFSGDIDNKDRYIFLTCELDDKISLIIEINLVAKSYSLLLSGDKNYLISNLSNTIEKINTLGLDSKNIAYNYTDESNNKYFGAISKTSQKSIIHYKKDSKNILEFYNDSTLEFNSKDFIAEDINVFMKDDINTITGKYYVDNNTDKSIDFSISLVSKNQVKVNGLYLNESVYSSYLDFVKNSDGHHNTSNFMNLFLDNISFWKLFGFENINFVIDKYFTLVGKTNLGYVEFICDNNKNIDIYFGEWKTSSSKSTIFSGNGRNVVVEPIYNPDTGEDISTSLDFSYEPLYGIDRYINKVLIAPDLYTSLININTNYYSNEYYPEIIVLNPNTFHKKVNINLDSSSFEYKWSTEGSDFILVRYLEESNKKILQKIRIKGILSNTQSFNKMSIDFKDIKKLSLGYIMSNFKSFNSENELDRDHLGFKIIDNKTYYYDEDSKLVKGLININNSLFYFDPIE
binding result [1]: binds

B2
Kd [2]: 3.32 ± 0.36 µM

B3: isolated TcdA CROPs (TcdA^1875–2710) (domain or fragment)
chain: YKIINGKHFYFNNDGVMQLGVFKGPDGFEYFAPANTQNNNIEGQAIVYQSKFLTLNGKKYYFDNNSKAVTGWRIINNEKYYFNPNNAIAAVGLQVIDNNKYYFNPDTAIISKGWQTVNGSRYYFDTDTAIAFNGYKTIDGKHFYFDSDCVVKIGVFSTSNGFEYFAPANTYNNNIEGQAIVYQSKFLTLNGKKYYFDNNSKAVTGLQTIDSKKYYFNTNTAEAATGWQTIDGKKYYFNTNTAEAATGWQTIDGKKYYFNTNTAIASTGYTIINGKHFYFNTDGIMQIGVFKGPNGFEYFAPANTDANNIEGQAILYQNEFLTLNGKKYYFGSDSKAVTGWRIINNKKYYFNPNNAIAAIHLCTINNDKYYFSYDGILQNGYITIERNNFYFDANNESKMVTGVFKGPNGFEYFAPANTHNNNIEGQAIVYQNKFLTLNGKKYYFDNDSKAVTGWQTIDGKKYYFNLNTAEAATGWQTIDGKKYYFNLNTAEAATGWQTIDGKKYYFNTNTFIASTGYTSINGKHFYFNTDGIMQIGVFKGPNGFEYFAPANTDANNIEGQAILYQNKFLTLNGKKYYFGSDSKAVTGLRTIDGKKYYFNTNTAVAVTGWQTINGKKYYFNTNTSIASTGYTIISGKHFYFNTDGIMQIGVFKGPDGFEYFAPANTDANNIEGQAIRYQNRFLYLHDNIYYFGNNSKAATGWVTIDGNRYYFEPNTAMGANGYKTIDNKNFYFRNGLPQIGVFKGSNGFEYFAPANTDANNIEGQAIRYQNRFLHLLGKIYYFGNNSKAVTGWQTINGKVYYFMPDTAMAAAGGLFEIDGVIYFFGVDGVKAPGIYG
Kd [3]: 1440 ± 70 nM

Reference: paper PMC4113749 (Toxins, 2014)
